Reference: US11833215B2, “CKIT antibody drug conjugates” (Novartis AG, priority 2014, dated 2023)
“Also recorded” adds a separate entry of the source.

Key:
primary human mast cells = assay: mast cell apoptosis (Caspase-Glo 3/7); format: cell-based; conditions: 0.05-100 nM, 1.6 nM rhSCF, 48 h
Protocol: Primary human mast cells were cultured from peripheral human blood according to the methods described by Saito et al., Nature Protocols 2006; 1(4):2178-2183. Mast cells, which had been in liquid culture for a minimum of one week, were incubated with increasing concentrations (0.05-100 nM) of the anti-human cKIT Abs, NEG085 and 20376, or an isotype control IgG, in the presence of 1.6 nM rhSCF (Genscript, Cat #Z00400, Piscataway, NJ), for 48 h at 37° C. before the addition of the Caspase-Glo® 3/7 reagent (Promega, Cat #G8093, Madison, WI) to measure apoptosis. Following 30 min incubation at room temperature, luminescence was recorded on the BioTek® Synergy plate reader (BioTek, Winooski, VT).

human cKIT = target: T1, human cKIT (Homo sapiens, UniProt P10721); assay: SPR (Biacore) affinity measurement; format: binding; conditions: 25° C., 1:1 model
T1 construct: Human cKIT tr. variant 2 , residues 26-520-TAG; made in house; host or cells: HEK293 derived cell line 293FS, transient transfection
T1 sequence (P10721 with tags, fused parts or gaps isoform P10721-2): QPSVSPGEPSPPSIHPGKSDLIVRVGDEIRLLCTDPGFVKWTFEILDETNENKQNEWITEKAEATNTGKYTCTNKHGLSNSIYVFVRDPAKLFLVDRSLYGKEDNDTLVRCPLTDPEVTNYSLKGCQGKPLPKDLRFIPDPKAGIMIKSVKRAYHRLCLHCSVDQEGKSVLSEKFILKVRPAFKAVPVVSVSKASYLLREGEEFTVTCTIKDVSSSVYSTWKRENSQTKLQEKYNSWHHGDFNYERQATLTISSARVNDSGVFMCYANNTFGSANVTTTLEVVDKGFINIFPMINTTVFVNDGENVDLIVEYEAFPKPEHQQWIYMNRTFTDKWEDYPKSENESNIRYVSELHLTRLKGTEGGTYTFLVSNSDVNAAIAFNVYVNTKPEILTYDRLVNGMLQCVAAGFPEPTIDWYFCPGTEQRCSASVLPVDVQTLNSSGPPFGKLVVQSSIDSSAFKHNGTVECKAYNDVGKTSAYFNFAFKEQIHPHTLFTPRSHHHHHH
Protocol: (§1) Affinity of the antibodies to cKIT species orthologues and also to cKIT was determined using SPR technology using a Biacore® 2000 instrument (GE Healthcare, Pittsburgh, PA) and with CM5 sensor chips.
(§2) Briefly, HBS-P (0.01 M HEPES, pH 7.4, 0.15 M NaCl, 0.005% Surfactant P20) supplemented with 2% Odyssey® blocking buffer (Li-Cor Biosciences, Lincoln, NE) was used as the running buffer for all the experiments. The immobilization level and analyte interactions were measured by response unit (RU). Pilot experiments were performed to test and confirm the feasibility of the immobilization of the anti-human Fc antibody (Catalog number BR100839, GE Healthcare, Pittsburgh, PA) and the capture of the test antibodies.
(§3) For kinetic measurements, the experiments were performed in which the antibodies were captured to the sensor chip surface via the immobilized anti-human Fc antibody and the ability of the cKIT proteins to bind in free solution was determined. Briefly, 25 μg/ml of anti-human Fc antibody at pH 5 was immobilized on a CM5 sensor chip through amine coupling at flow rate of 5 μl/minute on all two flow cells to reach 10,500 RUs. 0.1-1 μg/ml of test antibodies were then injected at 10 μl/min for 1 minute. Captured levels of the antibodies were generally kept below 200 RUs. Subsequently, 3.125 −50 nM of cKIT receptor extracellular domains (ECD) were diluted in a 2-fold series and injected at a flow rate of 40 μl/min for 3 min over both reference and test flow cells. Table of tested ECDs is listed below (Table 6). Dissociation of the binding was followed for 10 min. After each injection cycle, the chip surface was regenerated with 3 M MgCl2 at 10 μl/min for 30 seconds.

mouse cKIT = target: T2, mouse cKIT (Mus musculus, UniProt P05532); assay: SPR (Biacore) affinity measurement; format: binding; conditions: 25° C., 1:1 model
T2 construct: cKIT receptor extracellular domains (ECD) were diluted in a 2-fold series
T2 sequence (P05532 25-527 limits assumed): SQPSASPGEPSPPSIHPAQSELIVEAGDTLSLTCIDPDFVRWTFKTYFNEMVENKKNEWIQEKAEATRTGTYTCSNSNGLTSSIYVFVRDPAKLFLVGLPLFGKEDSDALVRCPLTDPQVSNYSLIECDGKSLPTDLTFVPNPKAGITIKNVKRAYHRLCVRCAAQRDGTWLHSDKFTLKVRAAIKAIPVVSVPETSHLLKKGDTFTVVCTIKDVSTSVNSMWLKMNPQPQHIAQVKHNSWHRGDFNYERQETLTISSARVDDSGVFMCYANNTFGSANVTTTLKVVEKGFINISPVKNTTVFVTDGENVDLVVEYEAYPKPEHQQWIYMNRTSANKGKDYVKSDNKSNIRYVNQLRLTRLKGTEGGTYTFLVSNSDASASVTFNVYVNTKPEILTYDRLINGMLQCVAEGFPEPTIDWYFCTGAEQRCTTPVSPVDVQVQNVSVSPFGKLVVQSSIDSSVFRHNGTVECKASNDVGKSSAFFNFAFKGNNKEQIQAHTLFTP
Protocol: as §1, §2, §3

rat cKIT = assay: SPR (Biacore) affinity measurement; format: binding; conditions: 25° C., 1:1 model
Sequence of rat cKIT (as listed by the source): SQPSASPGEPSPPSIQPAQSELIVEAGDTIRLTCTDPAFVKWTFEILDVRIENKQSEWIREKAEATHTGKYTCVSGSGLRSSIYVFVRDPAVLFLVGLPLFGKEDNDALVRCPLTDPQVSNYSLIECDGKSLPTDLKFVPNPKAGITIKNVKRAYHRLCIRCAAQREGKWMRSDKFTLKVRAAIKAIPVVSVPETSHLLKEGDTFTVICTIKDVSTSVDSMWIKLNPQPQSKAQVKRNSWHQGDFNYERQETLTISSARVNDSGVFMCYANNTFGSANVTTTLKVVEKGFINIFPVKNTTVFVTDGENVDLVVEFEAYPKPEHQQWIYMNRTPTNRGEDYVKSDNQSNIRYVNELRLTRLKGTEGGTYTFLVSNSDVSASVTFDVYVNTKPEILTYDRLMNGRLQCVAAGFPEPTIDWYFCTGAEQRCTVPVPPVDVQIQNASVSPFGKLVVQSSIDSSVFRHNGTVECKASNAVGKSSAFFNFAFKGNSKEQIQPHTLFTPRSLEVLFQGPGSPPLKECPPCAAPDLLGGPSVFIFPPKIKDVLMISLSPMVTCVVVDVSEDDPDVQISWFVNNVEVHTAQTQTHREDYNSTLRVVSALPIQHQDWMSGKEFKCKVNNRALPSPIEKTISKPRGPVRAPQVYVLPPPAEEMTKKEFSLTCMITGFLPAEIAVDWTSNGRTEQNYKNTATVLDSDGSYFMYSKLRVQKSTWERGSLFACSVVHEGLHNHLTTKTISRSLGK
Protocol: as §1, §2, §3

B1: NEG085: anti-cKIT antibody of Table 3, VH SEQ ID NO 82, VL SEQ ID NO 91 (antibody, listed as Homo sapiens, V domains shown)
VH: EVQLVESGGGLVQPGGSLRLSCAASGFAFSGYYMAWVRQAPGKGLEWVANINYPGSSTYYLDSVKGRFTISRDNAKNSLYLQMNSLRAEDTAVYYCARGDYYGTTYWYFDVWGQGTTVTVSS
VL: DIQMTQSPSSLSASVGDRVTITCRASQSISSYLNWYQQKPGKAPKLLIYYTSRLQSGVPSRFSGSGSGTDFTLTISSLQPEDFATYYCQQGRRLWSFGGGTKVEIK
apoptosis of primary human mast cells (primary human mast cells): do not mediate primary human mast cell apoptosis; also recorded: do not lead to apoptosis | Affinity human cKIT (nM) (human cKIT): nanomolar level | Affinity mouse cKIT (nM) (mouse cKIT): Not reactive | Affinity to rat cKIT (nM) (rat cKIT): Not reactive
